One block for each binder: values may come before it. Numbered stars: 1 amine (or outer) side, 2 acyl side, 3 side chain; on linkers, the order of the positions; unused ones are H or OH. Bridge positions count the residues as written; N and C are the ends. Square brackets hold non-standard residues; d marks the D form. Primed or numbered codes have the meaning given here. * marks the point of attachment. Ttds″ = 1,13-diamino-4,7,10-trioxatridecan-succinamic acid spacer, O=C(CCC(=O)[*:2])NCCCOCCOCCOCCCN[*:1]; N4Ac = 6-Carboxy-1,4,8,11-tetraazaundecane, an N4-chelator, NCCNCC(CNCCN)C(=O)*; mXylylene = c1cc(C[*:1])cc(C[*:2])c1; 4Pal = N[C@@H](Cc1ccncc1)C(=O)O; Nle = CCCC[C@H](N)C(=O)O; Hexanoyl = CCCCCC(=O)*
Tests used:
[1] = target: T1, Cathepsin F (UniProt Q9UBX1); assay: cell-based or functional assay
T1 sequence (looked up): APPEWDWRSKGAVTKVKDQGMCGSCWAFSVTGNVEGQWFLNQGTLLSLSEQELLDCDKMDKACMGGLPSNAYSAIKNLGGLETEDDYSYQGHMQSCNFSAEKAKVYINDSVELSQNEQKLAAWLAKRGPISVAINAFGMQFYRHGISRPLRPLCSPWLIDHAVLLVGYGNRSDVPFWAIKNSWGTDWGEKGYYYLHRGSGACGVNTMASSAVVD

[2] = target: human fibroblast activation protein (FAP) on WI-38 fibroblasts (human) (UniProt Q12884); assay: competitive FACS, WI-38 cells, Cy5-labeled peptide as competitor; C = pIC50 6.1 to 7.0
[3] = target: fibroblast activation protein (FAP) on FAP-expressing human WI-38 fibroblasts (human), Q12884; assay: competitive FACS, WI-38 cells, vs Cy5 tracer m3; A = pIC50 >8.0; details: remark: other sources report otherwise

- Percentage inhibition (%), reference at 1 µM [1]: 74%
B1: Cystatin C (protein, UniProt P01034 27-146, looked up)
chain: SSPGKPPRLVGGPMDASVEEEGVRRALDFAVGEYNKASNDMYHSRALQVVRARKQIVAGVNYFLDVELGRTTCTKTQPNLDNCPFHDQPHLKRKAFCSFQIYAVPWQGTMTLSKSTCQDA

- pIC50 [2]: 6.1 to 7 pic50
B2: N4Ac-Ttds-Nle-[Cys-(3MeBn)-Pro-Pro-Thr-Glu-Ppa-Cys]-OH (peptide)
peptide: N4Ac-[Ttds″][Nle]CPPTE[4Pal]C-OH
modifications: linker 3-9 via mXylylene
SMILES: CCCC[C@H](NC(=O)CCC(=O)NCCCOCCOCCOCCCNC(=O)C(CNCCN)CNCCN)C(=O)N[C@H]1CSCc2cccc(c2)CSC[C@@H](C(=O)O)NC(=O)[C@H](Cc2ccncc2)NC(=O)[C@H](CCC(=O)O)NC(=O)[C@H]([C@@H](C)O)NC(=O)[C@@H]2CCCN2C(=O)[C@@H]2CCCN2C1=O

- pIC50 Category (FACS) [3]: > 8 pIC50
B3: Hex-[Cys(3MeBn)-Pro-Pro-Thr-Glu-Phe-Cys]-Asp-NH2 (peptide)
peptide: Hexanoyl-CPPTEFCD-NH2
modifications: linker 1-7 via mXylylene
SMILES: CCCCCC(=O)N[C@H]1CSCc2cccc(c2)CSC[C@@H](C(=O)N[C@@H](CC(=O)O)C(N)=O)NC(=O)[C@H](Cc2ccccc2)NC(=O)[C@H](CCC(=O)O)NC(=O)[C@H]([C@@H](C)O)NC(=O)[C@@H]2CCCN2C(=O)[C@@H]2CCCN2C1=O

— US20230212549A1, “COMPOUNDS COMPRISING A […] LIGAND AND USE THEREOF” (priority 2021, published 2023)
